Data published in US6972319B1, “Pituitary adenylate cyclase activating peptide (PACAP)receptor 3 (R3) agonists and their pharmacological methods of use” (priority 1999, dated 2005).
No end group written: not given here.

T1: PACAP-R3 (human, UniProt P41587 24-438)
T1 sequence (looked up): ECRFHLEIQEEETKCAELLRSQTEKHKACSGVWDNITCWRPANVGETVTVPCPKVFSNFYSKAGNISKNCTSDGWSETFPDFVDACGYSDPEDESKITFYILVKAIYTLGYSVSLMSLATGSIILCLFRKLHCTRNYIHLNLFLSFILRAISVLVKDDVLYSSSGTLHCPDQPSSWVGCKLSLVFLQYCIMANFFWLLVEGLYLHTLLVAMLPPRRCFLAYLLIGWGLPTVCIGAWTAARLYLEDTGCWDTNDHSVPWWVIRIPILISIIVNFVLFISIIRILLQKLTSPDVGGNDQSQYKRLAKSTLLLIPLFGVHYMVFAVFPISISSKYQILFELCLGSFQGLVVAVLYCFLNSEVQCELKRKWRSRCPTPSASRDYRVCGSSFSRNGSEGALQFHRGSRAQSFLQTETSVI


Molecular target: T1, PACAP-R3
Assay: cell-based or functional assay

Binder | R3 EC50, nM (cAMP SPA) [nM] | R3 Selectivity [ratio]
HSDGIFTDSYSRYRKQMAVKKYKAAVL-NH2 [PAC23] | 13 | 13
HSDGIFTDSYSRKRKQMAVKKYLAAVL-NH2 [PAC13] | 0.5 | 6
HSDGIFTKSYSRYRKQMAVKKYLAAVL-NH2 [PAC8] | 47 | 1
HSDAVFTDNYTRLRKQMAAKKYLNSIKNKY [R3P171] | 0.4 | –
HKDGIFTDSYSRYRKQMAVKKYLAAVL-NH2 [PAC2] | 34 | –
HSDGIFTDSYSEYRKQMAVKKYLAAVL-NH2 [PAC12] | 3 | 50
HSDGIFTDSYSRYRKQMAVKKKLAAVL-NH2 [PAC22] | 15 | 0.1
HSDGIFTDSYSRYRKKMAVKKYLAAVL-NH2 [PAC16] | 0.2 | 1
HSDGIFTDSYSRYRKQMAVKEYLAAVL-NH2 [PAC21] | 0.24 | 10
ESDGIFTDSYSRYRKQMAVKKYLAAVL-NH2 [PAC1] | 10 | 97
HSDGIFTDSYSRYRKQMAVKKYLAKVL-NH2 [PAC25] | 0.04 | 3
HSDGIFTDSYSRYRKQMAVKKYLAAKL-NH2 [PAC26] | 0.3 | 1
HSDGIFTDSYKRYRKQMAVKKYLAAVL-NH2 [PAC11] | 140 | 0.1
HSDAVFTDNYTRLRKQVAAKKYLQSIKNKRYSWCEPGWCR [R3P172] | 2.6 | 29
HSDGIFTDSYSRYEKQMAVKKYLAAVL-NH2 [PAC14] | 1.6 | 70
HSDGIFTDKYSRYRKQMAVKKYLAAVL-NH2 [PAC9] | 0.7 | 1
HSDGIFTDSYSRYRKQMAVKKYLKAVL-NH2 [PAC24] | 0.2 | 1.5
HSDGIFTDSYSRYRKQMAKKKYLAAVL-NH2 [PAC19] | 0.4 | 20
HSDAVFTDDYTRLRKEVAAKKYLESIKDKRY [R3P173] | 200 | –
HSDGIFTDSYSRYREQMAVKKYLAAVL-NH2 [PAC15] | 0.2 | 12
HSDGIFTDSKSRYRKQMAVKKYLAAVL-NH2 [PAC10] | 27 | 4
HSDGIFTDSYSRYRKQMAVEKYLAAVL-NH2 [PAC20] | 0.7 | 30
HSDKIFTDSYSRYRKQMAVKKYLAAVL-NH2 [PAC4] | 7 | 6
HSDGIFTDSYSRYRKQKAVKKYLAAVL-NH2 [PAC17] | 0.15 | 1.6

The remaining lines, values ahead:

R3 EC50, nM (cAMP SPA) [nM] | R3 Selectivity [ratio] | Binder
3.2 | 90 | HSDAVFTDNYTRLRKQMARKKYLNSIPNRI [rR3P182]
2.2 | 180 | HSDAVFTDNYTRLRKQMAGKKYLNSIKNRI [rR3P175]
0.04 | 30 | HSDAVFTDNYTRLRKQMAAKKYLNSIRNRI [rR3P189]
6.7 | > 20 | HSDAVFTDNYTRLRKQMAGKKYLNSIPNRI [rR3P180]
1.9 | 110 | HSDAVFTDNYTRLRKQMASKKYLNSIRNRI [rR3P193]
2.7 | > 80 | HSDAVFTDNYTRLRKQMAKKKYLNSIRNRI [rR3P191]
1.6 | 70 | HSDAVFTDNYTRLRKQMARKKYLNSIKNRI [rR3P177]
2.2 | 70 | HSDAVFTDNYTRLRKQMASKKYLNSIQNRI [rR3P188]
2 | 150 | HSDAVFTDNYTRLRKQMAKKKYLNSIKNRI [rR3P176]
0.6 | 60 | HSDAVFTDNYTRLRKQMARKKYLNSIRNRI [rR3P192]
1.6 | > 80 | HSDAVFTDNYTRLRKQMARKKYLNSIQNRI [rR3P187]
0.75 | 110 | HSDAVFTDNYTRLRKQMASKKYLNSIKNRI [rR3P178]
4.5 | 40 | HSDAVFTDNYTRLRKQMAGKKYLNSIQNRI [rR3P185]
1.1 | 1.4 | HSDGIFTDSYSRYRKQMAVKKYLAAVK-NH2 [PAC27]
0.2 | 90 | HSDAVFTDNYTRLRKQMAAKKYLNSIKNRI [rR3P174]
1.5 | 150 | HSDAVFTDNYTRLRKQMAAKKYLNSIPNRI [rR3P179]
5.1 | 50 | HSDAVFTDNYTRLRKQMAKKKYLNSIPNRI [rR3P181]
2.2 | 100 | HSDAVFTDNYTRLRKQMAGKKYLNSIRNRI [rR3P190]
0.37 | 30 | HSDAVFTDNYTRLRKQMAAKKYLNSIQNRI [rR3P184]
1.6 | 44 | HSDAVFTDNYTRLRKQMAKKKYLNSIQNRI [rR3P186]
5.4 | > 30 | HSDAVFTDNYTRLRKQMASKKYLNSIPNRI [rR3P183]
